Results from article PMC3954636.

Biological target: hemagglutinin (HA) of human H7N9 influenza A virus A/Shanghai/2/2013 (influenza A virus A/Shanghai/2/2013 (H7N9))
Assay: crystal structure

How did the stoichiometry N turn out when “hemagglutinin (HA) of human H7N9 influenza A virus A/Shanghai/2/2013 (natural protein)” was run?
Its stoichiometry N is 3.
